Test results from patent US20240132578A1.

What was measured:
Test in all cases: cell-based or functional assay
[1] = target: HIV-1 92TH021 Env (pseudovirus) (HIV-1)
[2] = target: HIV-1 Env of isolate MGRM-A-007 (clade A pseudovirus) (HIV-1)
[3] = target: HIV-1 Env of isolate MGRM-AE-008 (pseudovirus) (HIV-1)
[4] = target: HIV-1 Env of isolate MGRM-AG-001 (pseudovirus) (HIV-1)
[5] = target: HIV-1 Env of pseudovirus MGRM-F1-010 (clade F) (HIV-1)
[6] = target: HIV-1 Env of pseudovirus MGRM-F1-014 (clade F) (HIV-1)
[7] = target: HIV-1 Env of pseudovirus MGRM-G-011 (HIV-1)
[8] = target: HIV-1 Env of pseudovirus MGRM-G-027 (HIV-1)
[9] = target: HIV-1 MGRM-AG-001 Env (pseudovirus) (HIV-1)
[10] = target: HIV-1 MGRM-AG-011 Env (pseudovirus) (HIV-1)
[11] = target: HIV-1 envelope glycoprotein (Env) of isolate LAVI_C3 (HIV-1)
[12] = target: HIV-1 envelope glycoprotein (Env) of isolate MGRM-C-017 (HIV-1)
[13] = target: HIV-1 envelope glycoprotein (Env) of isolate MGRM-C-019 (HIV-1)
[14] = target: HIV-1 envelope glycoprotein (Env) of isolate 92UG031, subtype A (HIV-1)
[15] = target: HIV-1 envelope glycoprotein (Env) of isolate 92WR021, subtype A (HIV-1)
[16] = target: HIV-1 envelope glycoprotein (Env) of isolate 94UG103, subtype A (HIV-1)
[17] = target: HIV-1 envelope glycoprotein (Env) of isolate APV_17, on pseudovirus (HIV-1)
[18] = target: HIV-1 envelope glycoprotein (Env) of isolate MGRM-AE-003, subtype AE (HIV-1)
[19] = target: HIV-1 envelope glycoprotein (Env) of isolate MGRM-Chronic-B-004, on pseudovirus (HIV-1)
[20] = target: HIV-1 envelope glycoprotein (Env) of isolate MGRM-Chronic-B-011, on pseudovirus (HIV-1)
[21] = target: HIV-1 JR-CSF Env I424A (HIV-1 (isolate JR-CSF)) (UniProt P20871)
[22] = target: HIV-1 JR-CSF Env P313A (HIV-1 (isolate JR-CSF, clade B)) (UniProt P20871)
[23] = target: HIV-1 Env of isolate 92UG046 (HIV-1)
[24] = target: HIV-1 Env of isolate MGRM-C-014 (subtype C), on pseudovirus (HIV-1)
[25] = target: HIV-1 Env of isolate MGRM-C-022 (subtype C), on pseudovirus (HIV-1)
[26] = target: HIV-1 Env of isolate MGRM-C-023 (subtype C), on pseudovirus (HIV-1)
[27] = target: HIV-1 Env of isolate MGRM-C-027 (subtype C), on pseudovirus (HIV-1)
[28] = target: HIV-1 Env of isolate MGRM-D-002 (HIV-1)
[29] = target: HIV-1 Env of isolate MGRM-A-003 (pseudovirus) (HIV-1)
[30] = target: HIV-1 Env of isolate MGRM-A-013 (subtype A) (HIV-1)
[31] = target: HIV-1 Env of isolate MGRM-AE-008 (subtype AE) (HIV-1)
[32] = target: HIV-1 Env of isolate MGRM-AG-003 (subtype AG) (HIV-1)
[33] = target: HIV-1 Env of isolate MGRM-AG-013 (subtype AG) (HIV-1)
[34] = target: HIV-1 Env of isolate MGRM-D-013 (pseudovirus) (HIV-1)
[35] = target: HIV-1 Env of isolate MGRM-F1-006 (HIV-1)
[36] = target: HIV-1 Env of isolate MGRM-F1-013 (HIV-1)
[37] = target: HIV-1 Env of pseudovirus isolate MGRM-C-012 (clade C) (HIV-1)
[38] = target: HIV-1 Env of pseudovirus isolate MGRM-C-015 (clade C) (HIV-1)
[39] = target: HIV-1 Env of pseudovirus isolate MGRM-C-020 (clade C) (HIV-1)

Sequence of 4995_E20 (PGT-142) (antibody) (VH): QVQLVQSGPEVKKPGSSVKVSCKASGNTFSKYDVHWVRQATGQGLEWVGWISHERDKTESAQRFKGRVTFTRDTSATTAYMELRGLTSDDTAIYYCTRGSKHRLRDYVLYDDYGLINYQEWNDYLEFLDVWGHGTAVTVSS
Sequence of 4995_E20 (PGT-142) (antibody) (VL): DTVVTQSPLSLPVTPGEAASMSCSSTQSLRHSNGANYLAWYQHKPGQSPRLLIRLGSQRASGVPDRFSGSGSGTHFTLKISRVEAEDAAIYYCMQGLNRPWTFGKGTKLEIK
Sequence of 4980_N08 (PGT-143) (antibody) (VH): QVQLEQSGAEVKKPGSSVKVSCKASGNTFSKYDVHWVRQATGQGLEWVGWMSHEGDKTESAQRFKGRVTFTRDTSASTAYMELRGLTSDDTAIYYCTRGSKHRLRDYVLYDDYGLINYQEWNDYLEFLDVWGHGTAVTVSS
Sequence of 4980_N08 (PGT-143) (antibody) (VL): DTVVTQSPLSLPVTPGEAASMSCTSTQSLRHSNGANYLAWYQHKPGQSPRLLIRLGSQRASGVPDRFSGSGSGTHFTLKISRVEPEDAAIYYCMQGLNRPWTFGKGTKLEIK
Sequence of 4970_K22 (PGT-144) (antibody) (VH): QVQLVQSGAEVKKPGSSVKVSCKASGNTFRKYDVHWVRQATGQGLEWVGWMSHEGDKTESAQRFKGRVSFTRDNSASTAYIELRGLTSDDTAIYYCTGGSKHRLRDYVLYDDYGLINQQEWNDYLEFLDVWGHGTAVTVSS
Sequence of 4970_K22 (PGT-144) (antibody) (VL): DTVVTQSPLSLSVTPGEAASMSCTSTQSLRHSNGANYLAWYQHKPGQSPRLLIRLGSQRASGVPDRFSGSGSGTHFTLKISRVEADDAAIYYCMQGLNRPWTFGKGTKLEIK
Sequence of 4993_K13 (PGT-141) (antibody) (VH): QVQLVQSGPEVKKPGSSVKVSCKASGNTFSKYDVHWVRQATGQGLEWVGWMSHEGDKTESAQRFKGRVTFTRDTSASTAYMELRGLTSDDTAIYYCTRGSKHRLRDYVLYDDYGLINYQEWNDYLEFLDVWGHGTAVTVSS
Sequence of 4995_P16 (PGT-145) (antibody) (VH): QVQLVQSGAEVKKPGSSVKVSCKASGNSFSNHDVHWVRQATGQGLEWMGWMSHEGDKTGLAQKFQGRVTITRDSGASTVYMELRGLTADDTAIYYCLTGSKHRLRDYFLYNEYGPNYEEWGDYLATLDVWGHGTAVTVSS
Sequence of 4995_P16 (PGT-145) (antibody) (VL): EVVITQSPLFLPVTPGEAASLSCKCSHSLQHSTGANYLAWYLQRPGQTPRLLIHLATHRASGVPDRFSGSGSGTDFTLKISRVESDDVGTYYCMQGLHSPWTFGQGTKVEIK

Substance | IC50 (µg/mL), pseudovirus neutralization [3] [µg/mL] | IC50 (µg/mL), pseudovirus neutralization [4] [µg/mL] | IC50, pseudovirus neutralization [14] [µg/mL] | IC50, pseudovirus neutralization [15] [µg/mL] | IC50, pseudovirus neutralization [16] [µg/mL] | IC50, pseudovirus neutralization [17] [µg/mL] | IC50, pseudovirus neutralization [18] [µg/mL] | IC50, pseudovirus neutralization [19] [µg/mL] | IC50, pseudovirus neutralization [20] [µg/mL] | IC50 (µg/mL), pseudovirus neutralization [23] [µg/mL] | IC50, single-round pseudovirus neutralization [24] [µg/mL] | IC50, single-round pseudovirus neutralization [25] [µg/mL] | IC50, single-round pseudovirus neutralization [26] [µg/mL] | IC50, single-round pseudovirus neutralization [27] [µg/mL] | IC50 (µg/mL), pseudovirus neutralization [28] [µg/mL] | other results
1496_C09 (PG9) (TCN-109) (antibody) | 31.5 | 17.1 |  |  |  |  |  |  |  |  |  |  |  |  |  | IC50 (µg/ml), pseudovirus neutralization [1]: 0.09 µg/mL; IC50 (µg/ml), pseudovirus neutralization [2]: 0.37 µg/mL; IC50 [5]: 0.03 µg/mL; IC50 [6]: 0.01 µg/mL; IC50 (µg/ml), pseudovirus neutralization [7]: 0.19 µg/mL; IC50 (µg/ml), pseudovirus neutralization [8]: 0.01 µg/mL; IC50 (µg/ml), pseudovirus neutralization [9]: 8.83 µg/mL; IC50 (µg/ml), pseudovirus neutralization [10]: 0.01 µg/mL; IC50 (µg/ml), pseudovirus neutralization [11]: 1.45 µg/mL; IC50 (µg/ml), pseudovirus neutralization [12]: 1.52 µg/mL; IC50 (µg/ml), pseudovirus neutralization [13]: 0.01 µg/mL
4838_L06 (PGT-121) (antibody) |  |  | > 50 | 0.009 | 2.52 | 0.066 | > 50 | 0.009 | > 50 |  |  |  |  |  |  | 
4858_P08 (PGT-123) (antibody) | > 50 | 2.51 | > 50 | 0.005 | 0.678 | 0.114 | > 50 | 0.008 | > 50 |  |  |  |  |  |  | Fold IC50 increase relative to wild-type (pseudovirus neutralization) [21]: 0.5 fold; Fold IC50 increase relative to wild-type [22]: 0.2 fold
4877_D15 (PGT-122) (antibody) | > 50 | 14.5 | > 50 | 0.021 | 2.04 | 0.25 | > 50 | 0.008 | > 50 |  |  |  |  |  |  | 
4970_K22 (PGT-144) (antibody) |  |  |  |  |  |  |  |  |  | > 50 | > 50 | 2.58 | 0.38 | > 50 | > 50 | 
4980_N08 (PGT-143) (antibody) |  |  |  |  |  |  |  |  |  | > 50 | 8.81 | 0.103 | 0.148 | 0.598 | > 50 | 
4993_K13 (PGT-141) (antibody) |  |  |  |  |  |  |  |  |  | > 50 | 11.8 | 0.381 | 0.153 | 3.27 | > 50 | 
4995_E20 (PGT-142) (antibody) |  |  |  |  |  |  |  |  |  | > 50 | 6.02 | 0.086 | 0.087 | 0.792 | > 50 | 
4995_P16 (PGT-145) (antibody) |  |  |  |  |  |  |  |  |  | > 50 | 5.82 | 0.492 | 0.201 | 0.095 | > 50 | 
5114_A19 (PGT-128) (antibody) |  |  |  |  |  |  |  |  |  |  |  |  |  |  |  | IC50 (µg/mL), pseudovirus neutralization [29]: > 50 µg/mL; IC50, pseudovirus neutralization [30]: 0.008 µg/mL; IC50, pseudovirus neutralization [31]: > 50 µg/mL; IC50, pseudovirus neutralization [32]: 34.8 µg/mL; IC50, pseudovirus neutralization [33]: 0.004 µg/mL; IC50 (µg/mL), pseudovirus neutralization [34]: 8.85 µg/mL; IC50 (µg/mL), pseudovirus neutralization [35]: 0.763 µg/mL; IC50 (µg/mL), pseudovirus neutralization [36]: 12.7 µg/mL; IC50, pseudovirus neutralization [37]: 0.058 µg/mL; IC50, pseudovirus neutralization [38]: 0.196 µg/mL; IC50, pseudovirus neutralization [39]: 5.85 µg/mL; Fold IC50 increase relative to wild-type (pseudovirus neutralization) [21]: 1.3 fold
